Test results reported in publication PMC4490372, “Architecture of TFIIIC and its role in RNA polymerase III pre-initiation complex assembly” (Nature Communications, 2015).

T1: τ131 (123–566), TPR array, wild type (S. cerevisiae, UniProt P33339 123-566)
T1 construct: also called τ131 TPR array; source: E. coli BL21 Star (DE3) pRARE, purified (Ni-NTA, TEV cleavage, S200 SEC); not shown: His6, N-terminal, cleaved
T1 sequence (looked up): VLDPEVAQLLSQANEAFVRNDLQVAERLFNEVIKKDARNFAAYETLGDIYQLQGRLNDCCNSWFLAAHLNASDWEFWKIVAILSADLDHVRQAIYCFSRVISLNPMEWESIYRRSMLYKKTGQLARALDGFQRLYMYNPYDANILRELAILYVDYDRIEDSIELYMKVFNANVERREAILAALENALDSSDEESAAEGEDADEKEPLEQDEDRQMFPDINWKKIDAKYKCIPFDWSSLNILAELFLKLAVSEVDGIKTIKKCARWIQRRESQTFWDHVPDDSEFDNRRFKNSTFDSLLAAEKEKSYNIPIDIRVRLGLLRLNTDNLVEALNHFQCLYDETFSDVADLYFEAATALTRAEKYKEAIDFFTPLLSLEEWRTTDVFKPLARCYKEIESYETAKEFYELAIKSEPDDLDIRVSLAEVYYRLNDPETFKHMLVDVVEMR

T2: τ138 (Tfc3), τB subunit of endogenous S. cerevisiae TFIIIC (S. cerevisiae, UniProt P34111 1-1160)
T2 construct: τ138 (Tfc3), subunit of S. cerevisiae TFIIIC, endogenous subunit in the purified complex; source: endogenous, purified from S. cerevisiae strain SC2342 as part of TFIIIC (TAP tag on τ60)
T2 sequence (looked up): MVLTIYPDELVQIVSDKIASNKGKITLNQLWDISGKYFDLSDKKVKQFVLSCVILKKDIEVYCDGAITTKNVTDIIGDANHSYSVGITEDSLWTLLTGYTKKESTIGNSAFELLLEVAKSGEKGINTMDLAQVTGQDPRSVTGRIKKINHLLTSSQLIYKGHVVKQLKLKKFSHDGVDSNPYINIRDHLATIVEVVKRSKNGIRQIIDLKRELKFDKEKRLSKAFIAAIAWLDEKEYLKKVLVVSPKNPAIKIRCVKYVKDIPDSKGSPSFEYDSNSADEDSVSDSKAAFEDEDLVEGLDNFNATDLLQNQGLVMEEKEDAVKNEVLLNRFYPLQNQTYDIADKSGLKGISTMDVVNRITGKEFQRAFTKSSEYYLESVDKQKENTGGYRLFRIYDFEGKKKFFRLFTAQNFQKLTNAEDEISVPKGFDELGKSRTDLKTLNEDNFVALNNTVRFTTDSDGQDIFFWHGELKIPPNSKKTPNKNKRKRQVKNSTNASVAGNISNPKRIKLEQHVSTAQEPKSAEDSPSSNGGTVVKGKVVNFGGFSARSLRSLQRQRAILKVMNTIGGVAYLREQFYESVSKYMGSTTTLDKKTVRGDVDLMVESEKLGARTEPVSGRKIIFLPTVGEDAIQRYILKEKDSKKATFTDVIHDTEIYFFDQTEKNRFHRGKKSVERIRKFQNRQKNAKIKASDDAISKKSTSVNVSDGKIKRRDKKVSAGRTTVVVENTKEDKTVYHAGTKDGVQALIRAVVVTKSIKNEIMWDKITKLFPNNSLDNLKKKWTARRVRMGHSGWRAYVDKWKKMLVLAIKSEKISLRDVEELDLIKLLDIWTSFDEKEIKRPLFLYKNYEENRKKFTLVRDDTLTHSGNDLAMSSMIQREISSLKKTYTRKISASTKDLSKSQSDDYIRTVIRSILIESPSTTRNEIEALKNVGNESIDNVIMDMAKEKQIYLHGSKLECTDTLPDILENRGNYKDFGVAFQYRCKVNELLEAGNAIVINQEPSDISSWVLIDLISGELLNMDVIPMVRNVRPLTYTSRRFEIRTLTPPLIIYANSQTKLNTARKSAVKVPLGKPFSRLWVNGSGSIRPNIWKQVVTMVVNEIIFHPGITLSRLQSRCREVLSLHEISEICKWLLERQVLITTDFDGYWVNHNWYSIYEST


Assays:
[1] = target: T1, τ131 (123–566), TPR array, wild type; assay: ITC; MicroCal ITC200; 15 μM τ138 in the cell, 150 μM τ131 in the syringe; 20 mM Tris pH 7.5, 150 mM NaCl, 2 mM β-mercaptoethanol; 25 °C; settings: both partners purified
[2] = target: T2, τ138 (Tfc3), τB subunit of endogenous …; assay: cross-linking; XL-MS: purified endogenous TFIIIC (30 μg, 1 μg/μl) cross-linked with H12/D12 DSS to 2 mM, 40 min at 37 °C; ld-score >25; settings: both partners purified

Binder | Kd [1] [nM] | binding result [2]
τ138 construct with residues 682–693 removed (domain or fragment) SARSLRSLQRQRAILKVMNTIGGVAYLREQFYESVSKYMGSTTTLDKKTVRGDVDLMVESEKLGARTEPVSGRKIIFLPTVGEDAIQRYILKEKDSKKATFTDVIHDTEIYFFDQTEKNRFHRGKKSVERIRKFQN | ~2600 | 
τ91 (Tfc6), τB subunit of endogenous S. cerevisiae TFIIIC (natural protein, UniProt Q06339 1-672, looked up, τ91 (Tfc6), subunit of S. cerevisiae TFIIIC, endogenous subunit in the purified complex; source: endogenous, purified from S. cerevisiae strain SC2342 as part of TFIIIC (TAP tag on τ60)) MAVIPAKKRGRPRKSVVAEVPYDSLASPVSENSGSKRPRRNASKKAVANFAQLVHAGRDDVINTTQVNNVDDTDDDDFVLNDEGDGEESDNVEIEFENELESTKNEVADLNSSGSGASVRPSGRRNTVQKLRLKKNSTKNMKSSSPGSSLGQKGRPIRLLKDLSSARDKIERIYGLNKEKLLLLAKVKEGFETSVFDFPFKNIQPDSPYFVCLDPPCKKESAYNKVIGDKNRTVYHEINKTEFENMIKLRTKRLKLLIGEVDAEVSTGDKIEFPVLANGKRRGFIYNVGGLVTDIAWLNIEENTDIGKDIQYLAVAVSQYMDEPLNEHLEMFDKEKHSSCIQIFKMNTSTLHCVKVQTIVHSFGEVWDLKWHEGCHAPHLVGCLSFVSQEGTINFLEIIDNATDVHVFKMCEKPSLTLSLADSLITTFDFLSPTTVVCGFKNGFVAEFDLTDPEVPSFYDQVHDSYILSVSTAYSDFEDTVVSTVAVDGYFYIFNPKDIATTKTTVSRFRGSNLVPVVYCPQIYSYIYSDGASSLRAVPSRAAFAVHPLVSRETTITAIGVSRLHPMVLAGSADGSLIITNAARRLLHGIKNSSATQKSLRLWKWDYSIKDDKYRIDSSYEVYPLTVNDVSKAKIDAHGINITCTKWNETSAGGKCYAFSNSAGLLTLEYLS |  | binds
